Reference: patent US20090004190A1 (published 2009)

Columns and labels:
[1] = molecular target: T1, Amyloid Beta (1-40) from Biosource (UniProt P05067 672-711); test: plate assay, immobilized ligand (A beta=Amyloid beta 1-40), fusion protein 0 to 360 nM, anti-IgG polyclonal antibody with alkaline phosphatase
T1 construct: domain: Amyloid Beta (1-40); Immobilized on Maxisorb plates at 5 micrograms per well; also called Abeta; A-beta
Procedure: The ligands are immobilized on a microtiter plate and incubated in the presence of increasing concentrations of RAGE fusion protein from 0 to 360 nM. The RAGE fusion protein-ligand interaction is detected using a polyclonal antibody conjugated with alkaline phosphatase that is specific for the IgG portion of the fusion chimera. […] HMG1B=Ampoterin, CML=Carboxymethyl Lysine, A beta=Amyloid beta 1-40.

BSA = molecular target: T2, BSA (UniProt P02769 25-607); test: plate ELISA, BSA-only coating, detection with anti-human IgG1 complex, absorbance at 405 nm
T2 construct: Negative control coating; also called BSA coating alone; BSA+wash
Procedure: (§1) Known RAGE ligands were coated onto the surface of Maxisorb plates at a concentration of 5 micrograms per well. Plates were incubated at 4° C. overnight. Following ligand incubation, plates were aspirated and a blocking buffer of 1% BSA in 50 mM imidizole buffer (pH 7.2) was added to the plates for 1 hour at room temperature. The plates were then aspirated and/or washed with wash buffer (20 mM Imidizole, 150 mM NaCl, 0.05% Tween-20, 5 mM CaCl₂ and 5 mM MgCl₂, pH 7.2). […] The RAGE fusion protein was added at increasing dilutions of the initial sample. The RAGE fusion protein was allowed to incubate with the immobilized ligand at 37° C. for one hour after which the plate was washed and assayed for binding of the RAGE fusion protein. Binding was detected by the addition of an immunodetection complex containing a monoclonal mouse anti-human IgG1 diluted 1:11,000 to a final assay concentration (FAC) of 21 ng/100 μL, a biotinylated goat anti-mouse IgG diluted 1:500, to a FAC of […], and an avidin-linked alkaline phosphatase. […] Binding of the complex to the immobilized RAGE fusion protein was quantified by measuring conversion of PNPP to para-nitrophenol (PNP) which was measured spectrophotometrically at 405 nm.

[2] = molecular target: T1, Amyloid Beta (1-40) from Biosource; test: plate ELISA, immobilized ligand, dilutions of fusion protein, absorbance at 405 nm
Procedure: as §1

T2 sequence (P02769 25-607 limits assumed): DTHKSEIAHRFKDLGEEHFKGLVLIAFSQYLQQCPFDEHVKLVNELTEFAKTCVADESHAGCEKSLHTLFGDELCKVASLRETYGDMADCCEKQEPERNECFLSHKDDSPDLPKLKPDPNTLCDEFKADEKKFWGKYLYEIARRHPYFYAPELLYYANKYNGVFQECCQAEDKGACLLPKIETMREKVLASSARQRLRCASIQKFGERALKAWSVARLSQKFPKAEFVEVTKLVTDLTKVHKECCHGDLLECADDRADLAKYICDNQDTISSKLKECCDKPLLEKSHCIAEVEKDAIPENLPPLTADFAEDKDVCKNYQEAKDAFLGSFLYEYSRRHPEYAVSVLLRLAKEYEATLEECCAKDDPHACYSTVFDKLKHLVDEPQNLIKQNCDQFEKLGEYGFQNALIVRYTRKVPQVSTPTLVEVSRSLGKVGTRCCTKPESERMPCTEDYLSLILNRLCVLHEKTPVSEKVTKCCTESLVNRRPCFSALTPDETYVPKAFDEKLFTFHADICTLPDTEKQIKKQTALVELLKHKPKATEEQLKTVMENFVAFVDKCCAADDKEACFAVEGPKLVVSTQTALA
T1 sequence (P05067 672-711 limits assumed): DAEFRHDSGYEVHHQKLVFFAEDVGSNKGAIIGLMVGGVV

binding result [1] | binding result (BSA) | binding result [2] | Binder
binds | no binding | – | RAGE fusion protein TTP-4000 (Fc fusion, N-terminal residue glutamine (Q) or pyroglutamic acid (pE) or a mixture thereof; glycosylation sites at N2 and N288 (numbering of SEQ ID NO: 34 or 56); C-terminal residue of CH3 may be cleaved off, No immunoglobulin hinge; Made in CHO cells, purified on Protein A; also called TT4; four domain RAGE fusion protein) QNITARIGEPLVLKCKGAPKKPPQRLEWKLNTGRTEAWKVLSPQGGGPWDSVARVLPNGSLFLPAVGIQDEGIFRCQAMNRNGKETKSNYRVRVYQIPGKPEIVDSASELTAGVPNKVGTCVSEGSYPAGTLSWHLDGKPLVPNEKGVSVKEQTRRHPETGLFTLQSELMVTPARGGDPRPTFSCSFSPGLPRHRALRTAPIQPRVWEPVPLEEVQLVVEPEGGAVAPPSVFLFPPKPKDTLMISRTPEVTCVVVDVSHEDPEVKFNWYVDGVEVHNAKTKPREEQYNSTYRVVSVLTVLHQDWLNGKEYKCKVSNKALPAPIEKTISKAKGQPREPQVYTLPPSRDELTKNQVSLTCLVKGFYPSDIAVEWESNGQPENNYKTTPPVLDSDGSFFLYSKLTVDKSRWQQGNVFSCSVMHEALHNHYTQKSLSLSPGK
– | no binding | binds | RAGE fusion protein TTP-3000 (Fc fusion, also called TT3; three domain RAGE fusion protein) QNITARIGEPLVLKCKGAPKKPPQRLEWKLNTGRTEAWKVLSPQGGGPWDSVARVLPNGSLFLPAVGIQDEGIFRCQAMNRNGKETKSNYRVRVYQIPGKPEIVDSASELTAGPSVFLFPPKPKDTLMISRTPEVTCVVVDVSHEDPEVKFNWYVDGVEVHNAKTKPREEQYNSTYRVVSVLTVLHQDWLNGKEYKCKVSNKALPAPIEKTISKAKGQPREPQVYTLPPSRDELTKNQVSLTCLVKGFYPSDIAVEWESNGQPENNYKTTPPVLDSDGSFFLYSKLTVDKSRWQQGNVFSCSVMHEALHNHYTQKSLSLSPGK
